# Measured values from patent US20180291083A1 (IMMATICS BIOTECHNOLOGIES, published 2018).
# Molecular target: T1, HLA-B*44:02 (human)
# T1 construct: Peptide-receptive MHC class I monomer made by UV cleavage of a UV-sensitive ligand
# Assay: UV ligand exchange ELISA; exchange yield grade
# Text: (§1) Candidate peptides for T cell based therapies according to the present invention were further tested for their MHC binding capacity (affinity). The individual peptide-MHC complexes were produced by UV-ligand exchange, where a UV-sensitive peptide is cleaved upon UV-irradiation, and exchanged with the peptide of interest as analyzed. Only peptide candidates that can effectively bind and stabilize the peptide-receptive MHC molecules prevent dissociation of the MHC complexes. To determine the yield of the exchange reaction, an ELISA was performed based on the detection of the light chain (β2m) of stabilized MHC complexes. The assay was performed as generally described in Rodenko et al. (Rodenko et al., 2006).
# (§2) 96 well MAXISorp plates (NUNC) were coated over night with 2 ug/ml streptavidin in PBS at room temperature, washed 4× and blocked for 1 h at 37° C. in 2% BSA containing blocking buffer. Refolded HLA-A*02:01/MLA-001 monomers served as standards, covering the range of 15-500 ng/ml. Peptide-MHC monomers of the UV-exchange reaction were diluted 100-fold in blocking buffer. Samples were incubated for 1 h at 37° C., washed four times, incubated with 2 ug/ml HRP conjugated anti-β2m for 1 h at 37° C., washed again and detected with TMB solution that is stopped with […]. Absorption was measured at 450 nm. Candidate peptides that show a high exchange yield (preferably higher than 50%, most preferred higher than 75%) are generally preferred for a generation and production of antibodies or fragments thereof, and/or T cell receptors or fragments thereof, as they show sufficient avidity to the MHC molecules and prevent dissociation of the MHC complexes.
row,Binder,peptide exchange yield
1,AESEDLAVHLY,20 to 50%
2,AENAVSNLSF,20 to 50%
3,AEIKQTEEKY,20 to 50%
4,KELEDLNKW,50 to 75%
5,AESEDLAVHL,20 to 50%
6,EENTLVQNY,20 to 50%
7,AEIEIVKEEF,20 to 50%
8,GEAVTDHPDRLW,50 to 75%
9,EEGNLLRSW,50 to 75%
10,GEIKEPLEI,20 to 50%
11,AEIGEGAYGKVF,50 to 75%
12,AQNLSIIQY,20 to 50%
13,KEKFPINGW,50 to 75%
14,EEEGNLLRSW,50 to 75%
15,GESQDSTTAL,20 to 50%
16,KEFELRSSW,50 to 75%
17,EEPAFNVSY,20 to 50%
18,EELFRDGVNW,50 to 75%
19,KEFFFVKVF,50 to 75%

# Other lines, results leading:
row,peptide exchange yield,Binder
1,50 to 75%,NEIEHIPVW
2,50 to 75%,REYEHYWTEL
3,50 to 75%,QENMQIQSF
4,10 to 20%,NEQKIVRF
5,50 to 75%,SEDHSGSYW
6,> 75%,TENPLTKLL
7,50 to 75%,QEVDASIFKAW
8,20 to 50%,VDASIFKAW
9,20 to 50%,NEDKGTKAW
10,50 to 75%,QENQAETHAW
11,50 to 75%,REAGFQVKAY
12,50 to 75%,SEGDNVESW
13,20 to 50%,RMPPFTQAF
14,10 to 20%,SDAQRPSSF

# Molecular target: T2, HLA-B*07:02 (human)
# T2 construct: Peptide-receptive MHC class I monomer made by UV cleavage of a UV-sensitive ligand
# Assay: UV ligand exchange ELISA; exchange yield grade
# Text: as §1, §2
row,Binder,peptide exchange yield
1,IPVSHPVL,20 to 50%
2,IPASHPVL,20 to 50%
3,FPETVNNLL,20 to 50%
4,KPKAAKPKKAAA,20 to 50%
5,KARKSAGAA,50 to 75%
6,IPVSRPIL,50 to 75%
7,KAKKPAGAA,20 to 50%
8,FPAPILRAV,50 to 75%
9,IPANTEKASF,20 to 50%
10,APFGFLGMQSL,50 to 75%
11,KAFKWFSAL,20 to 50%
12,APINKAGSFL,> 75%
13,KPKAAKPKA,20 to 50%
14,KPKAAKPKAA,20 to 50%
15,KPKAAKPKTA,20 to 50%

# Next, values leading:
row,peptide exchange yield,Binder
1,20 to 50%,MPDPHLYHQM
2,20 to 50%,KPLFKVSTF
3,20 to 50%,LPFGKIPIL
4,> 75%,LPARFYQAL
5,50 to 75%,NPRYPNYMF
6,50 to 75%,SPKLQIAAM
7,20 to 50%,YPYQERVFL
8,50 to 75%,RPMTPTQIGPSL
9,50 to 75%,RPRGLALVL
10,50 to 75%,KPKKAPKSPA
11,50 to 75%,YPIALTRAEM
12,20 to 50%,YLNRHLHTW
13,50 to 75%,SESPWLHAPSL
14,20 to 50%,LPLSMEAKI
15,50 to 75%,NPLTKLLAI
16,50 to 75%,SPVPSHWMVA
17,> 75%,SPRAINNLVL
18,50 to 75%,RPNGNSLFTSA
